Measured values reported in the nanobody polyreactivity screen of Harvey et al. (2022).

Assay: yeast display, Sf9 membrane polyspecificity reagent, FACS + sequencing; frameworks hold sequencing errors
How it was run: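 A nanobody's polyreactivity label depends on the gate it was sorted from. Yeast display cells were stained with 10% biotinylated, detergent-solubilized Sf9 membrane reagent for 1 hour at 4 °C, enriched on streptavidin microbeads and sorted by FACS. The low and high (top ~1%) gates were set on anti-HA fluorescence for expression and streptavidin fluorescence for reagent binding.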

| Sequence | polyreactivity (PSR sort gate) |
| --- | --- |
| QVQLVDSGGGLVQAGGSLRLSCAASGRIFGRYAMGWSRQAPGKESELVASITYRGGGTYYADSVKGRFTISRDNAKNTVYLQMNSLKPEDTAVYYCNAYFAGVLRRNYRGQGTQVTVSS | high polyreactivity |
| QVQLVESGGGLVQAGGSLRLSCAASGSTFSYYAMGWYRQAPGKERELVAAISRSGGSTYYADSVKGRFTISRDNAKNTVYFQMNSMKPEDTAVYYCADRGQYRYSFGDYSWGQGTQVTVSS | high polyreactivity |
| QVQLVESGGGLVQAGGSLSLSCAASGSLFRPNAMGWYRQAPGKERELVAAITWSGDSTYYADSVKGRFTISRDNAKNTVYLQMNSLKPEATAVYYCAADFTYQGSSANDYWGQGTQVTVSS | low polyreactivity |
| QVQLVESGGGLVQAGGSLRLSCAASGSTFNSYTMGWYRPAPGKERELVAAISWRGTSTYYADSVKGRFTISRDNAKNTVYLQMNSLKPEDTAVFYCAAAGRYRVLTGLVSSWKYWGQGTLVTVSS | high polyreactivity |
| QVQLVESGGGLDQAGGSLRLSCAASGSTFVWNAMGWYRHAPGKERELVAAISSSGGSTYYADSVKGRFTISRDNAKNTVYLQMNSLKPEDTAVYYCAKGYYVRMDWGQGTQVTVSS | high polyreactivity |
| QVQLVESGGGLVQAGGSLRLSCAASGRIFLRTAMGWYRLAPAKERELVASIDSSGGSAYYADSVQGRFTISRDNAKNTVYLQMNSLKPEDTAVFYCNADAYGTPEFTSYAVRYDYGGQGTQVTVSS | low polyreactivity |
| QVQRVESGGGLVQAGGSVRLSCPASGSIFWSYAMGWYRQAPGKERELVAVINWSGGSTYYADSVKGRFTISRDNAKNTVYLQMNSLNPEDTAVYYCNKDLGPTKRPFTFDYSGQGTQVTVSS | low polyreactivity |
| QVQLVESGGGLVQSGGSLRLSCAASGSNFITYAMGWYRQAPGKERELVAAIRDSGDRTYYADSVKGRFTISRDNAKNTVYLQMNSLKPEDTAVYYCNARWQEPLKYDYWGQGTQVTVSS | low polyreactivity |
| QVQLVESGGGLVQAGGSLRLSCAASGIILPVYAMGWYRQAPGKERELVAAIRWSSGRTYYADSVKGRFTISRDNAKNTVYLQMNSLKPEDTAVYYCNAALYHDSEYNYWGQGTQVTVSS | high polyreactivity |
| QVQLVESGGGLVQAGGSLRLSCAASGFIFGYYAMGWYRQAPGKERELVAAITSGTGTNYADSVKGRFTISRDNAKNTVYLQMNSLKPEDTAVYYCAAYYTWLSEFGYWGQGTQVTVSS | low polyreactivity |
| QVQLVESGGGLVQAGGSLRLSCAASGSTFGPNGMGWYRQAPGKERELVARIDRIGGGTYYADSVKGRFTISRDNAKNTVYLQMNSLKPEDTAVYSCAADGPSPFIQGYAKGDYWGQGTQVTVSS | low polyreactivity |
| QVQLVESGGGLVQAGGSLRLSCAASGRTFYPYAMGWYRKAPGKERELVAAITSDGSTNYADSVKGRFTISRDNAKNTVYLQMNSLKPEDTAVYYCATAGYSWVSYDYWGQGTQVTVSS | low polyreactivity |
| QVQLVESGGGLVQAGGSLGLSCAASGRIFARYAMGWYRQAPGKERELVAAITKSVGSTYYADSVKGRFTISRDNAKNTVYLQMNIMKPEDTAVYYCAARYRGGYYFGYETYYYWGQGTQVTVSS | high polyreactivity |
| QVQLVESGGGLVQAGGSLRLSCAASGFIFTSYAMGWYRQAPGKERELVATISSSGGSTTYADSVKGRFTISRDNAKNTVYLQMNSLKPEDTAVYYCAAAVYVVRYVSLYRRYYWGQGTQVTVSS | high polyreactivity |
| QVQLVESGGGLVQAGGSLRLSCAASGSIFGGYGMGWYRQAPGKERQLVAAITSGSSTYYADSVKGRFTISRDNAKNTVYLQMNSLKPEDTAVYYCAARPYPHSAYQGDYWGRGTQVTVSS | low polyreactivity |
| QVQLVESGGGLVQAGGSLRLSCAASGLTFDAYAMGWYRQAPGKERELVAAISSGGNTYYADSVKGRFTISRDNAKNTVYLQMNSLKPEDTAVYYCNAVGYYKYFVLAYEYDYWGQGTQVTVSS | low polyreactivity |
| QVQLVDSGGGLVQAGGSLRLSCASSGFIFAVYAMGWYRQAPGKERELVARISWSGGSTYYADSVKGRFTISRDNAKNTVYLQMNSLKPEDTAVNYCWGQGTQVTVSS | low polyreactivity |
| QVQLVESGGGLVQAGGSLRLSCAASGSTFTANAMGWYRQAPGKERELVAAITNSDGSTYYADSVKGRFTISRDNAKNTVYLQMNSLKPEETAVYYCAKDYYACYWEMDYWGLGTQVTVSS | low polyreactivity |
| QVQLVESGGGLVQAGGSLRLSCAASGSTFETNGMGWYRQAPGKERELVAAITSGGSTYYADSVKGRFTISRDNAKNTVYLQMNSLKPEDTAVYYCAAVDGGWAYDPYDYWGQGTQVTVSS | low polyreactivity |
| QVHLVESGGGLVQAGGSLRLSCAASGITFSKYEMGWYRQAPWKERELVAAITSTGSTYYADSVKGRFTISRDNAKNTVYLQMNSVKPEDTAVYYCAAERRVFYYCHKLTYWYDYWGQGTQVTVSS | low polyreactivity |
| QVQLEESGGGLVQAGGSLRLSCAASGSTFNYYAMGWYRTATGKERELVAAITGSGTSTYYADSVKGRFTISRDNAKNTVYLQMNSLKPEDTAVYYCNARYRPRQRPEGGYWGQGTQVTVSS | high polyreactivity |
| QVQLVESGGGLVQAGGSLRLSCAASGRTFYKNTMGWYRQAPGKERELVAGISQRGGRTYYADSVKGRFTISRDNAKNTVYLQMNSLKPEDTAVYYCAADRYSYGSNGYPRFEYYYWGQGTQVTVSS | high polyreactivity |
| QVQLVESGGGLVQAGGSLRLSCAASGRIFLKYSMGWYRQAPGKERELVAAISRGGSTYYADSVKGRFTISRDNAKNTVYLQMNSLKPEDTAVYYCAATSYRRTGYNYWGQGTQVTVSS | high polyreactivity |
| QVQLVESGGGLVQPGGSLRLSCAASGRNSTYTMGWYRQAPGKERELVATISTDASTNYADSVKGRFTISRDNAKNTVYLQMNSLKPEDTAVYYCAAVIVNQDYDYWGQGTQVTVSS | low polyreactivity |
| QVQLVESGGGLVQAGGSLRLSCAASGIIFYGNAMGWYRQAPGKERELVAAISWSGSSTYYADSVKGRFTISRDNAKNTVYLQMNSLKPEDTAVYYCAADIPYQFVRDVYYWGQGTQVTLSS | high polyreactivity |
| QVQLVESGGGLVQAGGSLRLSCAASGFTFWYYAMGWYRQAPGKERELVASISSIGGSTYYADSVKGRFTISRDNAKNTVYLQMNSLKPEDTAVYYCAARYKFLRGGVRRDYWGQGTQVTVSS | high polyreactivity |
| QVQLVESGGGLVQAGGSLRLSCAASGSIFYYNAKGWYTQAPGKERELVAVISYRSGRTSDADSVKGRFTISRDNAKNTVYLQMNSLKPEDTAVYYCATRDWWRYRHTGVIKFDYWGQGTQVSVSS | high polyreactivity |
| QVQLVESWGGLVQAGGSLRLSCAAYGIIFKYYAMGWYRQAPGKERELVAVITSNGARTYYADSVKGRFTISRDNAKNTVYLQMNSLKPEDTAVYYCNAYRLSVSVGYDYCGQGTQVTVSS | high polyreactivity |
| QVQLVESGGGLVQAGGSLRLSCAASGRTIRVYAMGWYRQAPGKERELVARINFRGGSTRYADSVKGRFTISRDNAKNTVYLQMNSLKPEDTAVYYCAARPSSFYYSNGFDYWGQGTQVTVSS | high polyreactivity |
| QVQLVESGVGLVQAGGSLRLSCAASGSTFGGYAMVWYRQAPGKESELVAAIYSSGGNTNYADSVKGRFTISRDNAKNTVYLQMNSLIPEDTAVYYCARDTQLPHFYGRVSEYDYWGQGTQVTVSS | low polyreactivity |
